Here are results for two molecules from paper PMC8113585 (Nature Communications, 2020).

For orientation: Kd means the equilibrium constant for the complex coming apart. Read a high Kd as lower affinity. As usually defined, the koff is the rate constant with which the complex falls apart. A higher koff goes with fast dissociation. What is called kon is the rate constant with which the complex forms. A higher kon goes with fast association.

Conditions in all cases: both partners purified
Experiment [1] addresses T1, MERS-CoV nucleocapsid (N) protein, full length (N-FL) (MERS-CoV, strain , UniProt K9N4V7).
T1 construct: also called MERS-CoV N protein; MERS-CoV N-FL
The experiment can be described thus: SPR; Biacore X100; […]; room temperature; 1:1 binding model, […]. (In general: Surface plasmon resonance follows binding to a sensor surface in real time, without labels.)

Experiment [2] deals with T2, SARS-CoV-2 nucleocapsid (N) protein, full length (N-FL, 1-419) (Severe acute respiratory syndrome …, UniProt P0DTC9).
T2 construct: also called SARS-CoV-2 N protein
The experiment is described as above.

Experiment [3] addresses T3, SARS-CoV nucleocapsid (N) protein, full length (N-FL) (Severe acute respiratory syndrome …, UniProt P59595).
T3 construct: also called SARS-CoV N protein; SARS-CoV N-FL
The description is as above.

Experiment [4] has as its target T4, MERS-CoV N protein (N-FL) (MERS-CoV, strain , UniProt K9N4V7).
T4 construct: also called MERS-CoV N-FL; Middle East respiratory syndrome coronavirus N protein
The experiment can be described thus: SPR; Biacore X100; […]; room temperature; 1:1 binding model.

Experiment [5] addresses T5, SARS-CoV N protein (N-FL) (Severe acute respiratory syndrome …, UniProt P59595).
T5 construct: also called SARS-CoV N-FL
The experiment is described as above.

Experiment [6] addresses T6, SARS-CoV-2 full-length nucleocapsid (N) protein (N-FL: 1-419) (Severe acute respiratory syndrome …, UniProt P0DTC9).
T6 construct: also called SARS-CoV-2 N protein
Described as above.

B1: mAb nCoV396 (recombinant human IgG1) (antibody, V domains shown)
VH: QVQLVESGGGVVQPGRSLRLSCAASGFTFSSYIMHWVRQAPGKGLEWVAVISYDGSNEAYADSVKGRFTISRDNSKNTLYLQMSSLRAEDTGVYYCARETGDYSSSWYDSWGRGTLVTVSS
VL: QLVLTQSPSASASLGASVKLTCTLSSGHSNYAIAWHQQQPEKGPRYLMKVNSDGSHTKGDGIPDRFSGSSSGAERYLTISSLQSEDEADYYCQTWGTGIQVFGGGTKLTVL
notes: also called mAb-396; IgH ID H16030
In the case of B1, in experiment [1], binding was characterised by a dissociation constant (Kd) of 7.43 nM, the koff worked out at 0.0004 s⁻¹ and the kon came to 53800 M⁻¹ s⁻¹. Further, in experiment [2], the koff is 2.89e-06 s⁻¹ and the kon was determined as 2830 M⁻¹ s⁻¹. In experiment [3], binding was put at a Kd of 7.44 nM, the koff came out at 0.000295 s⁻¹ and the kon was 39700 M⁻¹ s⁻¹.

B2: human monoclonal antibody nCoV396, recombinant IgG1 (antibody, V domains shown)
VH: B1 VH
VL: B1 VL
notes: also called mAb nCoV396
Take B2: the Kd in experiment [4] was determined as 7.4 nM; in experiment [5], 7.4 nM; in experiment [6] it was 1.02 nM.
